We go through one molecule from article PMC4176334.

This series addresses M. tuberculosis RNAP core;SigB;RbpA (Mycobacterium …, UniProt P9WGZ1;P9WGY9;P9WGY7;P9WGY5;P9WGI5;P9WHJ5 1-347;1-1178;1-1316;1-110;1-323;1-111, ||). The experiment in a line: EMSA.

B1: galP1AA (dsDNA)
DNA 1: GTTTATTCCATGTCACACTTTTCGCATCTTTTCGTTGCTATAATTATTTCATACCAAAAGCCTAATGGAGCG
DNA 2: CGCTCCATTAGGCTTTTGGTATGAAATAATTATAGCAACGAAAAGATGCGAAAAGTGTGACATGGAATAAAC
Regarding B1, the binding result is listed as “binds”.
